Laboratory results published in patent US20120046222A1.

Target: GLP-1 receptor (UniProt P32301)
Assay: cell-based or functional assay

Substance	Cyclase GLP-1 Receptor EC50 [nM]
dAla^2,Pro^3-exendin-4 amide (from UniProt P26349 48-86) (peptide)	0.004
dAla^2,Pro^3,Leu^14,Phe^25-exendin-4 (1-28) amide (from UniProt P26349) (peptide)	0.029
